From patent publication US20190359693A1 come the findings set out here.

The target in assay [1] is HA of H7N3 A/NIBRG/60 (A/mallard/NL/12/00) (influenza A virus). Briefly: BLI steady state.
Assay [2] addresses HA of H3N2 A/Brisbane/10/2007 (influenza A virus). Briefly: BLI steady state.
For assay [3] the target is unchanged. The assay can be described thus: AlphaLISA competition vs CR9114. (Bead proximity is the source of the signal in Alpha formats.)
Assay [4] shares this target. Briefly: AlphaLISA competition vs CR8020.
The target in assay [5] is HA of H1N1 A/New Caledonia/20/1999 (influenza A virus). The assay can be described thus: cell-based or functional assay.
Assay [6] has as its target HA of B/Florida/04/2006 (Yamagata) (influenza B virus). The assay can be described thus: cell-based or functional assay.
Assay [7] concerns the target hemagglutinin (HA) of influenza A/waterfowl/Hong Kong/MPA892/06 (H4) (influenza A virus A/waterfowl/Hong Kong/MPA892/06 (H4)). Briefly: cell-based or functional assay.
For assay [8], the target named is HA of H7N3 A/NIBRG/60 (A/mallard/NL/12/00) (influenza A virus). Briefly: cell-based or functional assay.
Assay [9] concerns the target hemagglutinin (HA) of influenza A/chicken/Germany/n/49 (H10N7) (influenza A virus A/chicken/Germany/n/49 (H10N7)). The assay can be described thus: cell-based or functional assay.
Assay [10] concerns the target HA of H3N2 A/Brisbane/10/2007 (influenza A virus). The assay can be described thus: cell-based or functional assay.
Assay [11] concerns the target HA of B/Brisbane/60/2008 (Victoria) (influenza B virus). The assay can be described thus: cell-based or functional assay.
Assay [12] has as its target HA of H5N1 A/Vietnam/1194/04 (influenza A virus). Briefly: cell-based or functional assay.
Assay [13] concerns the target hemagglutinin (HA) of influenza A/New York/107/03 (PR8) (influenza A virus A/New York/107/03 (PR8)). Briefly: cell-based or functional assay.
Assay [14] addresses hemagglutinin (HA) of influenza A/Brisbane/10/07 (H3N2) (influenza A virus A/Brisbane/10/07 (H3N2)). The assay can be described thus: cell-based or functional assay.
For assay [15], the target named is HA of H1N1 A/Brisbane/59/07 (influenza A virus). The assay can be described thus: cell-based or functional assay.
In assay [16] the target is HA of H3N2 A/Brisbane/10/2007 (influenza A virus). The assay can be described thus: AlphaLISA competition vs CR8057.
Assay [17] deals with hemagglutinin (HA) of influenza virus B/Lee/40 (Old) (influenza B virus) (UniProt P03460). The assay can be described thus: cell-based or functional assay.
The target of assay [18] is hemagglutinin (HA) of influenza virus H7N3 A/NIBRG/60 (A/mallard/Netherlands/12/00) (influenza A virus). The assay can be described thus: cell-based or functional assay.
Assay [19] deals with hemagglutinin (HA) of influenza virus H1N1 A/Puerto Rico/8/34-MA (influenza A virus). Briefly: cell-based or functional assay.
The target in assay [20] is hemagglutinin (HA) of influenza virus H5N1 A/Vietnam/1194/04 (influenza A virus). The assay can be described thus: cell-based or functional assay.
Assay [21] deals with hemagglutinin (HA) of influenza virus H3N2 A/HK/1/68-MA (influenza A virus). The assay can be described thus: cell-based or functional assay.
In assay [22] the target is hemagglutinin (HA) of influenza virus B/Florida/04/06 (Yamagata) (influenza B virus). Briefly: cell-based or functional assay.
For assay [23], the target named is hemagglutinin (HA) of influenza virus H6N1 A/Taiwan/2/2013 (influenza A virus). The assay can be described thus: cell-based or functional assay.
The target in assay [24] is HA of H1N1 A/New Caledonia/20/1999 (influenza A virus). The assay can be described thus: BLI steady state.
The target of assay [25] is HA of H5N1 A/PR8 H5N1 HK97 (influenza A virus). The assay can be described thus: cell-based or functional assay.
Assay [26] concerns the target HA of H1N1 A/Puerto Rico/8/34-MA (influenza A virus). The assay can be described thus: cell-based or functional assay.
For assay [27], the target named is HA of B/Florida/04/2006 (Yamagata) (influenza B virus). The assay can be described thus: AlphaLISA competition vs CR8033.
Assay [28] shares this target. Briefly: AlphaLISA competition vs CR8071.
Assay [29] has as its target HA of B/Brisbane/60/2008 (Victoria) (influenza B virus). The assay can be described thus: AlphaLISA competition vs CR8071.
Assay [30] addresses HA of B/Florida/04/2006 (Yamagata) (influenza B virus). Briefly: AlphaLISA competition vs CR9114.
Assay [31] has as its target HA of B/Brisbane/60/2008 (Victoria) (influenza B virus). Briefly: AlphaLISA competition vs CR9114.
Assay [32] deals with recombinant HA of B/Florida/04/06 (Yamagata) (influenza B virus). Briefly: biolayer interferometry (Octet), steady-state fit, geometric mean, pH 7.4.
Assay [33] has as its target recombinant HA of B/Brisbane/60/08 (Victoria) (influenza B virus). The assay is described as above.
Assay [34] deals with hemagglutinin (HA) of influenza virus B/Brisbane/60/08 (Victoria) (influenza B virus). The assay can be described thus: cell-based or functional assay.
For assay [35], the target named is hemagglutinin (HA) of influenza virus H2N2 A/Guiyang/1/57 (influenza A virus). Briefly: cell-based or functional assay.
The target of assay [36] is hemagglutinin (HA) of influenza virus H2N2 A/WF/HK/MPU3156/05 (influenza A virus). The assay can be described thus: cell-based or functional assay.
Assay [37] deals with hemagglutinin (HA) of influenza virus H3N2 A/Brisbane/10/07 (influenza A virus). The assay can be described thus: cell-based or functional assay.
Assay [38] concerns the target hemagglutinin (HA) of influenza virus H7N9 A/Anhui/1/13 (influenza A virus). The assay can be described thus: cell-based or functional assay.
Assay [39] concerns the target HA of H3N2 A/Brisbane/10/2007 (influenza A virus). The assay can be described thus: AlphaLISA competition vs 39.29.
Assay [40] shares this target. The assay can be described thus: AlphaLISA competition vs SD1036.
The target of assay [41] is hemagglutinin (HA) of influenza B/Florida/04/06 (Yamagata) (influenza B virus). The assay can be described thus: cell-based or functional assay.
Assay [42] has as its target hemagglutinin (HA) of influenza B/Harbin/7/94 (Yamagata) (influenza B virus). Briefly: cell-based or functional assay.
Assay [43] addresses hemagglutinin (HA) of influenza B/Malaysia/2506/04 (Victoria) (influenza B virus). The assay can be described thus: cell-based or functional assay.
The target of assay [44] is hemagglutinin (HA) of influenza B/Lee/40 (Old) (influenza B virus) (UniProt P03460). Briefly: cell-based or functional assay.
The target in assay [45] is hemagglutinin (HA) of influenza B/Massachusetts/02/12 (Yamagata) (influenza B virus). The assay can be described thus: cell-based or functional assay.
The target of assay [46] is HA of H3N2 A/Brisbane/10/2007 (influenza A virus). The assay can be described thus: AlphaLISA competition vs SD1038.

B1: SD1046 (VHH)
VHH: EVQLVESGGGLVQAGDSLRISCAASGRTLSIYSMGWFRQAPGKEREFVATIGWNSGRTFYPDSLKGRFTISRDNARNTLYLQMNNLRPEDTAVYYCAAAKGPLRLSSQADYWGQGTQVTVSS
As usually defined, the Kd is the free concentration of one partner at which half of the binding sites on the other are occupied at equilibrium, for simple one-to-one binding. A word on the pIC50: it is −log10 of the IC50, conventionally taken in molar units. High values mean a low IC50, low ones a high IC50. As for B1, the Kd stood at 3 nM in [1] and 2 nM in assay [2]. Besides, the pIC50 in assay [3] was 9.9; in assay [4], 9.6; in [16], less than 7. The VNA titer in assay [5] is more than 1000 nM; in assay [6] it was more than 1000 nM; in [8] it was 26.4 nM; in assay [10] it was 6.6 nM; in assay [11], more than 1000 nM; in assay [12], more than 1000 nM. This molecule also showed a VNA titer in assay [15] of more than 1000 nM. Also, the VNA IC50 came to 3 nM in assay [7], 13 nM in [9], 34 nM in assay [13] and 5 nM in assay [14].

B2: MD2401 (protein)
chain: EVQLVESGGGLVQPGGSLRLSCAVSISIFDIYAMDWYRQAPGKQRDLVATSFRDGSTNYADSVKGRFTISRDNAKNTLYLQMNSLKPEDTAVYLCHVSLYRDPLGVAGGMGVYWGKGALVTVSSAAAGGGGSGGGGSGGGGSGGGGSGGGGSGGGGSGGGGSEVQLVESGGGLVQAGGSLKLSCAASGRTYAMGWFRQAPGKEREFVAHINALGTRTYYSDSVKGRFTISRDNAKNTEYLEMNNLKPEDTAVYYCTAQGQWRAAPVAVAAEYEFWGQGTQVTVSSLINLEGGGGSGGGGSGGGGSGGGGSGGGGSGGGGSGGGGSPAGEVQLVESGGGLVQPGGSLRLSCAATGFTLENKAIGWFRQTPGSEREGVLCISKSGSWTYYTDSMRGRFTISRDNAENTVYLQMDSLKPEDTAVYYCATTTAGGGLCWDGTTFSRLASSWGQGTQVTVSSAAAGGGGSGGGGSGGGGSGGGGSGGGGSGGGGSGGGGSEVQLVESGGGLVQPGGSLRLSCAATGFTLENKAIGWFRQTPGSEREGVLCISKSGSWTYYTDSMRGRFTISRDNAENTVYLQMDSLKPEDTAVYYCATTTAGGGLCWDGTTFSRLASSWGQGTQVTVSS
With B2, the average neutralization titer in assay [17] amounted to 165 nM; in [18], 27.7 nM; in assay [19], 14.7 nM; in assay [20], 27.7 nM; in [21], 27.7 nM; in [22] it was 277 nM. The same molecule registered an average neutralization titer in assay [23] of 36.3 nM.

B3: SD1045 (VHH)
VHH: EVQLVESGGGLVQAGGSLRLSCAASGSSFSINVMGWYRQAPGKQREMVATITYGGSTNYVDSVKGRFTISRDNAKNTVYLQMNSLKPEDTAVYYCNSRLAQINYWGQGTQVTVSS
B3: the Kd in assay [24] came out at 5 nM. Further, the VNA titer in assay [25] is 117 nM; in [5], 166 nM; in assay [6], more than 1000 nM; in assay [26], 206 nM; in [8], more than 1000 nM; in [10], 641 nM. Further, the VNA titer in [11] is more than 1000 nM; in assay [12] it was 63.5 nM.

B4: SD1086 (VHH)
VHH: EVQLVESGGGLVQAGGSLRLSCTASGSISSIDYMRWYRQYPGKHRELVATITSGGAADSRDSVKGRFTVSRGNAANTMYLQMNNLKPEDTAVYYCNAYGLEIGAHWGRGTQVTVSS
With B4, the pIC50 in assay [27] is less than 7; in assay [28], less than 7; in assay [29], less than 7; in assay [30], 8; in [31] it was 8.6. Besides, the VNA titer is more than 1000 nM in assay [6] and 827 nM in assay [11].

B5: MD1221 (VHH)
chain: EVQLVESGGGLVQPGGSLRLSCAATGFTLENKAIGWFRQTPGSEREGVLCISKSGSWTYYTDSMRGRFTISRDNAENTVYLQMDSLKPEDTAVYYCATTTAGGGLCWDGTTFSRLASSWGQGTQVTVSSAAAGGGGSGGGGSGGGGSGGGGSGGGGSGGGGSGGGGSEVQLVESGGGLVQPGGSLRLSCAATGFTLENKAIGWFRQTPGSEREGVLCISKSGSWTYYTDSMRGRFTISRDNAENTVYLQMDSLKPEDTAVYYCATTTAGGGLCWDGTTFSRLASSWGQGTQVTVSS
On to B5, for which the Kd stood at 1.9 nM in [32] and 1.7 nM in [33]. Also, the neutralization titer was 32.5 nM in assay [17], 76.4 nM in [22] and 23.4 nM in assay [34].

B6: MD2312 (bispecific antibody)
chain: EVQLVESGGGLVQAGDSLRLSCAASGPTFGMSAMGWFRQAPGKEREFVAAISGLGNPNYSDDVKGRFTISRENGRNTVYLQMNSLKPEDTAVYYCAQRKVYHVQGGDRPQAYDYWGQGTQVTVSSGGGGSGGGGSEVQLVESGGGLVQAGDSLRISCAASGRTLSIYSMGWFRQAPGKEREFVATIGWNSGRTFYPDSLKGRFTISRDNARNTLYLQMNNLRPEDTAVYYCAAAKGPLRLSSQADYWGQGTQVTVSSGGGGSGGGGSEVQLVESGGGLVQPGGSLRLSCAATGFTLENKAIGWFRQTPGSEREGVLCISKSGSWTYYTDSMRGRFTISRDNAENTVYLQMDSLKPEDTAVYYCATTTAGGGLCWDGTTFSRLASSWGQGTQVTVSS
As to B6, the average neutralization titer is less than 1000 nM in [35]; 7.7 nM in assay [18]; 21.6 nM in assay [36]; 5.8 nM in [20]; 18.1 nM in assay [37]; 43.2 nM in [38].

B7: SD1087 (VHH)
VHH: EVQLVESGGGLVQPGGSLRLSCVISGLSLDTYAVGWFRQAPGKEREGITCISSGHGMTYYADSVKGRFTVSTDNAKNTVYLQMNGLQPEDTARYYCATESRYYCSDNWPAPQRYIYWGQGTQVTVSS
B7: the pIC50 in [27] was less than 7; in assay [29], less than 7; in assay [30], 8.8; in assay [3], less than 7; in [31], 7.5; in [39], less than 7. The pIC50 in [40] and in assay [46] was less than 7 in each case. Further, the VNA titer was more than 1000 nM in assay [6] and 10.2 nM in [11]. In addition, the hemagglutination inhibition titer in [6] and in assay [11] was more than 50 µg/mL throughout. For the same molecule, the VNA IC50 in assay [41] is more than 1000 nM; in assay [42], more than 1000 nM; in [43], 59 nM; in assay [44], 22 nM; in assay [45] it was 1000 nM.
